Legend:
[1] = molecular target: α5β1-integrin (human (endogenous in T-HEp3)) (UniProt P05556); assay: co-IP; as a1, with 2.5 µM compound MS#479 added for the last 15 min of the IP
[2] = molecular target: α5β1-integrin (human (endogenous in T-HEp3)) (UniProt P05556)
[3] = molecular target: α5β1-integrin (human (endogenous in T-HEp3)) (UniProt P05556); remark: listed apart in the source
[4] = molecular target: α5β1-integrin (human (endogenous in T-HEp3)) (UniProt P05556); remark: listed apart in the source

UniProt P05556, sequence (P05556 whole entry, looked up): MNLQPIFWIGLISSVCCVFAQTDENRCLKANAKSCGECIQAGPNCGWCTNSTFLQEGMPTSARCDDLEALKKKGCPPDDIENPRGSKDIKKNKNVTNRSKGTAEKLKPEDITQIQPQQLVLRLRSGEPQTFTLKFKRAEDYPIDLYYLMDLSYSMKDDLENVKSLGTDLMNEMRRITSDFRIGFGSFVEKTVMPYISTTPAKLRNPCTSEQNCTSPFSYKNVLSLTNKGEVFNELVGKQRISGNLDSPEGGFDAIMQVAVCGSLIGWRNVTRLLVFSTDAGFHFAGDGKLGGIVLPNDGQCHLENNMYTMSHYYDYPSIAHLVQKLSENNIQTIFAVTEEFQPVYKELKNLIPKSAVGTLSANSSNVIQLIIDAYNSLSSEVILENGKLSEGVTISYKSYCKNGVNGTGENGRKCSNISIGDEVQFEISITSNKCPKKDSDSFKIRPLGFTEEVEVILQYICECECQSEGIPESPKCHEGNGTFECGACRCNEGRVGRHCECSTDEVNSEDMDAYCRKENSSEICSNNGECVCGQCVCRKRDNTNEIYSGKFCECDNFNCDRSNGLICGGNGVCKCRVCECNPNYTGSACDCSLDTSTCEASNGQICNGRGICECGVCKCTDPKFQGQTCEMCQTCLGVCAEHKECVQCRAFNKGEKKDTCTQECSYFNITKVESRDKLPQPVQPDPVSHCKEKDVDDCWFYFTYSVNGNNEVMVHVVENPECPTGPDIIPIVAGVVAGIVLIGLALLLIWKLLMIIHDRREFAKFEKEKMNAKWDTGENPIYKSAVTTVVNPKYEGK

## urokinase receptor (uPAR) (from UniProt Q03405 23-305)
[1]
  percent reduction of the uPAR/integrin association with 2.5 µM MS#479: > 70%
[2]
  binding of HUTS-4 antibody (active conformation of β1 integrin) to T-HEp3 cells by FACS with 5 and 50 µM MS#479 or MS#305: 15%
[3]
  Elk1-GAL4 luciferase reporter of ERK activity in T-HEp3 cells treated for 16 hrs with 5 µM MS#479; inhibition against untreated control: > 60%
[4]
  luciferase activity (ERK reporter, units per mg of tumor protein) in T-HEp3 tumors on chick embryo CAMs treated daily with 10 µM MS#479; inhibition against diluent: 85%

Source: PMC2643475
